From the RNAGym collection of RNA variant scans (doi:10.1093/molbev/msab373)

B1: Azoarcus group I ribozyme (parent)
chain: GUGCCUUGCGCCGGGAAACCACGCAAGGGAUGGUGUCAAAUUCGGCGAAACCUAAGCGCCCGCCCGGGCGUAUGGCAACGCCGAGCCAAGCUUCGGCGCCUGCGCCGAUGAAGGUGUAGAGACUAGACGGCACCCACCUAAGGCAAACGCUAUGGUGAAGGCAUAGUCCAGGGAGUGGCGAAAGUCACACAAACCGG

Variants of: B1
Assay: reverse-splicing fitness (ratio to wild type); higher = more active; in vitro selection; Mg2+ level not given
Summary of the method: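 An in vitro group I ribozyme library with randomized positions was T7-transcribed and gel-purified. In triplicate, 10 pmol RNA in EPPS pH 7.5 was reacted with 50 pmoles of a 30-nt RNA substrate for 1 h at 37 °C across several added MgCl2 levels (1–48 mM), then stopped with EDTA. Products were reverse transcribed from a substrate-complementary primer, PCR-amplified and sequenced (HiSeq 4000). Fitness is a variant's read proportion after selection over that before, normalised to wild type.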
In the case of GUGCCUUGCGCCGGGAAACCACGCAAGGGAUGGUGUCAAAUUCGGCGAAACCUAAGCGCCCGCCCGGGCGUAUGGCAACGCAGAGCCAAGCUUCGGCGCCUGCGCCGAUGUAGGUGUAGGGACUAGACGGCACCCACCUAAGGCCAACGCUAUGGUGAAGGCAUAGUCGAGGGAGGGGCGAAAGUCACACAAACCGG, the reverse-splicing fitness is reported as 0.00418.
In the case of GUGCCUUGCGCCGGGAAACCACGCAAGGGAUGGUGUCAAAUUCGGCGAAACCUAAGCGCCCGCCCGGGCGUAUGGCAACGCAGAGCCAAGCUUCGGCGCCUGCGCCGAUGUAGGUGUAGGGACUAGACGGCACCCACCUAAGGCGAACGAUAUGGUGAAGGCAUAGUCAAGGGAGAGGCGAAAGUCACACAAACCGG, the reverse-splicing fitness is reported as 0.0191.
Work on GUGCCUUGCGCCGGGAAACCACGCAAGGGAUGGUGUCAAAUUCGGCGAAACCUAAGCGCCCGCCCGGGCGUAUGGCAACGCAGAGCCAAGCUUCGGCGCCUGCGCCGAUGUAGGUGUAGGGACUAGACGGCACCCACCUAAGGCGAACGAUAUGGUGAAGGCAUAGUCAAGGGAGCGGCGAAAGUCACACAAACCGG yielded a reverse-splicing fitness of 0.0248.
Variant GUGCCUUGCGCCGGGAAACCACGCAAGGGAUGGUGUCAAAUUCGGCGAAACCUAAGCGCCCGCCCGGGCGUAUGGCAACGCAGAGCCAAGCUUCGGCGCCUGCGCCGAUGUAGGUGUAGGGACUAGACGGCACCCACCUAAGGCGAACGAUAUGGUGAAGGCAUAGUCAAGGGAGGGGCGAAAGUCACACAAACCGG has a reverse-splicing fitness of 0.00817.
GUGCCUUGCGCCGGGAAACCACGCAAGGGAUGGUGUCAAAUUCGGCGAAACCUAAGCGCCCGCCCGGGCGUAUGGCAACGCAGAGCCAAGCUUCGGCGCCUGCGCCGAUGUAGGUGUAGGGACUAGACGGCACCCACCUAAGGCCAACGCUAUGGUGAAGGCAUAGUCCAGGGAGCGGCGAAAGUCACACAAACCGG showed a reverse-splicing fitness of 0.012.
Work on GUGCCUUGCGCCGGGAAACCACGCAAGGGAUGGUGUCAAAUUCGGCGAAACCUAAGCGCCCGCCCGGGCGUAUGGCAACGCAGAGCCAAGCUUCGGCGCCUGCGCCGAUGUAGGUGUAGGGACUAGACGGCACCCACCUAAGGCCAACGCUAUGGUGAAGGCAUAGUCCAGGGAGGGGCGAAAGUCACACAAACCGG yielded a reverse-splicing fitness of 0.00543.
Variant GUGCCUUGCGCCGGGAAACCACGCAAGGGAUGGUGUCAAAUUCGGCGAAACCUAAGCGCCCGCCCGGGCGUAUGGCAACGCAGAGCCAAGCUUCGGCGCCUGCGCCGAUGUAGGUGUAGGGACUAGACGGCACCCACCUAAGGCCAACGCUAUGGUGAAGGCAUAGUCCAGGGAGAGGCGAAAGUCACACAAACCGG has a reverse-splicing fitness of 0.0112.
GUGCCUUGCGCCGGGAAACCACGCAAGGGAUGGUGUCAAAUUCGGCGAAACCUAAGCGCCCGCCCGGGCGUAUGGCAACGCAGAGCCAAGCUUCGGCGCCUGCGCCGAUGUAGGUGUAGGGACUAGACGGCACCCACCUAAGGCCAACGUUAUGGUGAAGGCAUAGUCUAGGGAGGGGCGAAAGUCACACAAACCGG showed a reverse-splicing fitness of 0.00596.
GUGCCUUGCGCCGGGAAACCACGCAAGGGAUGGUGUCAAAUUCGGCGAAACCUAAGCGCCCGCCCGGGCGUAUGGCAACGCAGAGCCAAGCUUCGGCGCCUGCGCCGAUGUAGGUGUAGGGACUAGACGGCACCCACCUAAGGCCAACGUUAUGGUGAAGGCAUAGUCUAGGGAGCGGCGAAAGUCACACAAACCGG showed a reverse-splicing fitness of 0.0127.
With GUGCCUUGCGCCGGGAAACCACGCAAGGGAUGGUGUCAAAUUCGGCGAAACCUAAGCGCCCGCCCGGGCGUAUGGCAACGCAGAGCCAAGCUUCGGCGCCUGCGCCGAUGUAGGUGUAGGGACUAGACGGCACCCACCUAAGGCGAACGAUAUGGUGAAGGCAUAGUCGAGGGAGAGGCGAAAGUCACACAAACCGG the reverse-splicing fitness was 0.0172.
Variant GUGCCUUGCGCCGGGAAACCACGCAAGGGAUGGUGUCAAAUUCGGCGAAACCUAAGCGCCCGCCCGGGCGUAUGGCAACGCAGAGCCAAGCUUCGGCGCCUGCGCCGAUGUAGGUGUAGGGACUAGACGGCACCCACCUAAGGCGAACGAUAUGGUGAAGGCAUAGUCGAGGGAGGGGCGAAAGUCACACAAACCGG has a reverse-splicing fitness of 0.00589.
Work on GUGCCUUGCGCCGGGAAACCACGCAAGGGAUGGUGUCAAAUUCGGCGAAACCUAAGCGCCCGCCCGGGCGUAUGGCAACGCAGAGCCAAGCUUCGGCGCCUGCGCCGAUGUAGGUGUAGGGACUAGACGGCACCCACCUAAGGCGAACGAUAUGGUGAAGGCAUAGUCGAGGGAGCGGCGAAAGUCACACAAACCGG yielded a reverse-splicing fitness of 0.0255.
Variant GUGCCUUGCGCCGGGAAACCACGCAAGGGAUGGUGUCAAAUUCGGCGAAACCUAAGCGCCCGCCCGGGCGUAUGGCAACGCAGAGCCAAGCUUCGGCGCCUGCGCCGAUGUAGGUGUAGGGACUAGACGGCACCCACCUAAGGCCAACGCUAUGGUGAAGGCAUAGUCUAGGGAGAGGCGAAAGUCACACAAACCGG has a reverse-splicing fitness of 0.0212.
For GUGCCUUGCGCCGGGAAACCACGCAAGGGAUGGUGUCAAAUUCGGCGAAACCUAAGCGCCCGCCCGGGCGUAUGGCAACGCAGAGCCAAGCUUCGGCGCCUGCGCCGAUGUAGGUGUAGGGACUAGACGGCACCCACCUAAGGCCAACGCUAUGGUGAAGGCAUAGUCUAGGGAGGGGCGAAAGUCACACAAACCGG, the reverse-splicing fitness was 0.00478.
With GUGCCUUGCGCCGGGAAACCACGCAAGGGAUGGUGUCAAAUUCGGCGAAACCUAAGCGCCCGCCCGGGCGUAUGGCAACGCAGAGCCAAGCUUCGGCGCCUGCGCCGAUGUAGGUGUAGGGACUAGACGGCACCCACCUAAGGCCAACGCUAUGGUGAAGGCAUAGUCUAGGGAGCGGCGAAAGUCACACAAACCGG the reverse-splicing fitness was 0.0136.
